These results are taken from paper PMC12808597, “Spatially diffuse cAMP signalling with oppositely biased GLP-1 receptor agonists in β-cells despite differences in receptor localisation” (Molecular Metabolism, 2025).

Experiment [1] concerns the target mouse glucagon-like peptide-1 receptor, untagged (mouse) (UniProt O35659). The experiment can be described thus: imaging of fluorescent ligand bound to cells; washout: TMR-agonist detected at 60 min in AD293 cells transiently expressing untagged GLP-1R, with or without 20 uM exendin(9-39) applied 10 min after agonist.
Experiment [2] shares this target. Description: imaging of fluorescent ligand bound to cells; Cy5- or TMR-agonist over a concentration range, 30 min stimulation; AD293 cells expressing untagged hGLP-1R or mGLP-1R, or wild-type INS-1 832/3 cells (non-specific binding from INS-1 832/3 Glp1r-/- cells subtracted); 'functional affinities'.
Experiment [3] deals with human glucagon-like peptide-1 receptor, untagged (human) (UniProt P43220). The experiment is described as above.
For experiment [4], the target named is GLP-1R endogenous in wild-type mouse pancreatic islets (mouse (endogenous in C57Bl/6J islets)) (UniProt O35659). Description: imaging of fluorescent ligand in intact islets; wild-type mouse islets, 1 nM TMR-agonist, continuous 60 min or 10 min then exendin(9-39) washout.
GLP-1R endogenous in wild-type mouse pancreatic islets (mouse (endogenous in C57Bl/6J islets)), sequence (O35659 22-463): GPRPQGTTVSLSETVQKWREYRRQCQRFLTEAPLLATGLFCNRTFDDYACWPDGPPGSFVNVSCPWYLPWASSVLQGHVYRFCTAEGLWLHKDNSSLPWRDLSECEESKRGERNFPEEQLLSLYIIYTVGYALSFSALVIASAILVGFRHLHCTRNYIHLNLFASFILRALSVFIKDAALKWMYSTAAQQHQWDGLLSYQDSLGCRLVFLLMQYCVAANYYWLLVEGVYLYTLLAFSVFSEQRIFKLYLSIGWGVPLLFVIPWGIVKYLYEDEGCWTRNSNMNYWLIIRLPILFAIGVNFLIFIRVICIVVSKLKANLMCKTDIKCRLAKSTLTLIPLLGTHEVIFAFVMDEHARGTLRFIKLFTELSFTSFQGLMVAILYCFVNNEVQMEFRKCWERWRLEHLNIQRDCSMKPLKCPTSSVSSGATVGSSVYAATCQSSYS

mouse glucagon-like peptide-1 receptor, untagged (mouse), sequence (O35659 22-463): as above
human glucagon-like peptide-1 receptor, untagged (human), sequence (P43220 24-463): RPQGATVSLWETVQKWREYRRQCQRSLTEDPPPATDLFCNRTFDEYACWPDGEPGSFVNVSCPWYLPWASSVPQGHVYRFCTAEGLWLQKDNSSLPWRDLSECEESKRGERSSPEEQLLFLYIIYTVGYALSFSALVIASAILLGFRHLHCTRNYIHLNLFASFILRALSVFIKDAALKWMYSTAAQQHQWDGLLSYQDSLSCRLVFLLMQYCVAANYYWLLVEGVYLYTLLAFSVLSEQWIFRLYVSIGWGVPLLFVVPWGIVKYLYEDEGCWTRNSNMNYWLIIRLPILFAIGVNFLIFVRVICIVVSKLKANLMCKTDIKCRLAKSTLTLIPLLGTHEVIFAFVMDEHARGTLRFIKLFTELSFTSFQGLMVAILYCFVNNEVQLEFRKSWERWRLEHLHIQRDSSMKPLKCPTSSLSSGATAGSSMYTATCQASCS

In experiment [1], exendin(9–39) (peptide) yielded a percent reduction of total ExD3-TMR binding by washout with 20 uM exendin(9-39) of 50%.

Consider “exendin-asp3 tetramethylrhodamine conjugate (peptide)”, for which the fold lower affinity than the Cy5 equivalent is 3 fold in experiment [2] and 5 fold in experiment [3]. The total ligand bound after washout relative to continuously applied ExF1 in experiment [4] is 2 fold.

“exendin-phe1 tetramethylrhodamine conjugate (peptide)”: the fold lower affinity than the Cy5 equivalent was 3 fold in experiment [2] and 5 fold in experiment [3].
